The source of these data is IntAct's records for PubMed 20148946.

First the molecules themselves.
B1: Putative E3 ubiquitin-protein ligase UNKL (Homo sapiens), Q9H9P5 (parent)
chain: MPSVSKAAAAALSGSPPQTEKPTHYRYLKEFRTEQCPLFSQHKCAQHRPFTCFHWHFLNQRRRRPLRRRDGTFNYSPDVYCSKYNEATGVCPDGDECPYLHRTTGDTERKYHLRYYKTGTCIHETDARGHCVKNGLHCAFAHGPLDLRPPVCDVRELQAQEALQNGQLGGGEGVPDLQPGVLASQAMIEKILSEDPRWQDANFVLGSYKTEQCPKPPRLCRQGYACPHYHNSRDRRRNPRRFQYRSTPCPSVKHGDEWGEPSRCDGGDGCQYCHSRTEQQFHPESTKCNDMRQTGYCPRGPFCAFAHVEKSLGMVNEWGCHDLHLTSPSSTGSGQPGNAKRRDSPAEGGPRGSEQDSKQNHLAVFAAVHPPAPSVSSSVASSLASSAGSGSSSPTALPAPPARALPLGPASSTVEAVLGSALDLHLSNVNIASLEKDLEEQDGHDLGAAGPRSLAGSAPVAIPGSLPRAPSLHSPSSASTSPLGSLSQPLPGPVGSSAMTPPQQPPPLRSEPGTLGSAASSYSPLGLNGVPGSIWDFVSGSFSPSPSPILSAGPPSSSSASPNGAELARVRRQLDEAKRKIRQWEESWQQVKQVCDAWQREAQEAKERARVADSDRQLALQKKEEVEAQVIFQLRAKQCVACRERAHGAVLRPCQHHILCEPCAATAPECPYCKGQPLQW

The test covers variants of B1. Particulars: with ubi4p_yeast UBI4, P0CG63.
ubi4p_yeast UBI4, P0CG63, sequence (P0CG63 whole entry): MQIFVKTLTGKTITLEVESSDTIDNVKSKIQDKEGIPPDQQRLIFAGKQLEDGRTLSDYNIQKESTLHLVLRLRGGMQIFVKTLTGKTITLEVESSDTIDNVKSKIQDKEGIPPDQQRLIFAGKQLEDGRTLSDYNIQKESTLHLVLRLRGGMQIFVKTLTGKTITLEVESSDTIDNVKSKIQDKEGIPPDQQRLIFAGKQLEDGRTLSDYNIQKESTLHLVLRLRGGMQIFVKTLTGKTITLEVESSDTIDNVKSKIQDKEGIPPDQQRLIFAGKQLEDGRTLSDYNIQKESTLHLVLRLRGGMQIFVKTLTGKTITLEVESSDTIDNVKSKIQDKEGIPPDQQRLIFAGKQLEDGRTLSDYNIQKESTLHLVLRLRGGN
As to C670A, the “effect of a mutation on the interaction” value is listed as “decreasing interaction”.
With C639A the entry was “decreasing interaction”.
